US20260256913A1 (UTC TYHERAPEUTICS SHANGNAI, published 2026)

B1: LACO A409-9.3h11 (of CD27z-9-9.3) (bispecific antibody)
chain: QAVLTQPPSASGAPGQRVSISCSGGSSNIGSHTVNWYQQLPGAAPRLLMFSNYQRPSGVPDRFSASKSGTSASLAISGLRSEDEADYYCAAWDGTLKGYVFGTGTKVTVLGGGGSGGGGSGGGGSEVQLVESGGGVVLPGRSLRLSCAASGFTLRSYGMHWVRQATGKGLEWVSAIGTAGDTYYPGSVKGRFTISRENAKNSLYLQMNSLRAGDTAVYYCARADRLGGYGMDVWGQGTTVTVSSGGGGSQVKLQESGPGLVKPSETLSITCTVSGFSLSDYGVHWVRQSPGKGLEWLGVIWAGGGTNYNSALMSRKTISKDNSKSQVFLKMSSLTAADTAVYYCARDKGYSYYYSMDYWGQGTTVTVSSGGGGSGGGGSGGGGSDIQLTQSPSSLSVSVGDRVTISCRASESVEYYVTSLMQWYQQKPGQAPKLLIFAASNVESGVPSRFSGSGSGTNFTLTISSVQEEDFAMYFCQQSRKVPYTFGGGTKLEIK
notes: Anti-CD40 scFv 409 joined to anti-CD28 scFv 9.3h11, co-expressed with CD27z through T2A
B2: CD27-CAR (CD27z) (protein)
chain: ATPAPKSCPERHYWAQGKLCCQMCEPGTFLVKDCDQHRKAAQCDPCIPGVSFSPDHHTRPHCESCRHCNSGLLVRNCTITANAECACRNGWQCRDKECTECDPLPNPSLTARSSQALSPHPQPTHLPYVSEMLEARTAGHMQTLADFRQLPARTLSTHWPPQRSLCSSDFIRILVIFSGMFLVFTLAGALFLHQRRKYRSNKGESPVEPAEPCRYSCPREEEGSTIPIQEDYRKPEPACSPRVKFSRSADAPAYQQGQNQLYNELNLGRREEYDVLDKRRGRDPEMGGKPRRKNPQEGLYNELQKDKMAEAYSEIGMKGERRRGKGHDGLYQGLSTATKDTYDALHMQALPPR
B3: LACO A4025-9.3h11 (of CD27z-25-9.3) (bispecific antibody)
chain: QSALTQPASVSGSPGQSITVSCTGTRSDIGDYNYVSWYQQHPGKAPKLIIYDVSSRPSGVSNRYSGSKSGNTASLTISGLQAEDEADYYCSSYTSSSTLVFGGGTKVTVLGGGGSGGGGSGGGGSQVQLVQSGGGLVQPGGSLRLSCAASGFTFSSNWMSWVRQAPGKGLEWVANINQDGSEKYYVDSVKGRFTISRDNAKNSLYLQLNSLRAEDTAEYYCARGGYRYAYWGQGTLVTVSSGGGGSQVKLQESGPGLVKPSETLSITCTVSGFSLSDYGVHWVRQSPGKGLEWLGVIWAGGGTNYNSALMSRKTISKDNSKSQVFLKMSSLTAADTAVYYCARDKGYSYYYSMDYWGQGTTVTVSSGGGGSGGGGSGGGGSDIQLTQSPSSLSVSVGDRVTISCRASESVEYYVTSLMQWYQQKPGQAPKLLIFAASNVESGVPSRFSGSGSGTNFTLTISSVQEEDFAMYFCQQSRKVPYTFGGGTKLEIK
notes: Anti-CD40 scFv 4025 joined to anti-CD28 scFv 9.3h11, co-expressed with CD27z through T2A

Columns and labels:
[1] = biological target: T1, CD40-Fc recombinant protein (human, UniProt P25942 21-193); test: flow cytometry, CD40-Fc staining of transduced T cells at day 13
T1 construct: also called CD40-Fc protein; CD40-Fc antigen; not shown: Fc part; detected with anti-human IgG Fc antibody
Description: Lentivirus-based CART cells were generated using the following procedures: T cells were isolated from PBMC and activated by anti-CD3/CD28 beads (T cell:beads=1:3). […] At day 13, the CAR expression was detected using anti-CD27 antibody, and the expression of LACO was detected using CD40-Fc (FIG. 42A-42B and Table 10). Generally, the transduction efficiency was between 30% to 50%.

[2] = biological target: CD40-Fc recombinant protein (human) (UniProt P25942); test: flow cytometry, CD40-Fc staining of transduced T cells at day 13; control CAR without LACO

Binder | LACO % (cells positive in CD40-Fc staining) [1] [%] | LACO/MFI (CD40-Fc staining) [1] [MFI] | LACO % (cells positive in CD40-Fc staining) [2] [%] | LACO/MFI (CD40-Fc staining) [2] [MFI]
B1 | 27.3 | 127 | – | –
B2 | – | – | 2.9 | 44.3
B3 | 51.4 | 221 | – | –
